T1: MPP2, Q14168
T1 sequence (Q14168 180-250, limits assumed, looked up): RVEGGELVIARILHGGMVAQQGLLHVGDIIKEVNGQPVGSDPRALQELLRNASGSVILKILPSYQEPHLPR

T2: LNX2_3, Q8N448
T2 sequence (Q8N448 463-564, limits assumed, looked up): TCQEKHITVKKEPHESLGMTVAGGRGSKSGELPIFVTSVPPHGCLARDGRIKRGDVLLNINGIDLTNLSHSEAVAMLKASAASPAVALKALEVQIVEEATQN

T3: LIN7A, O14910
T3 sequence (O14910 103-200, limits assumed, looked up): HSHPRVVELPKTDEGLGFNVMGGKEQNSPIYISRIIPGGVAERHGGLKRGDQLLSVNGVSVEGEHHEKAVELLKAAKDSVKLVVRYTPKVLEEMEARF

T4: RADIL, Q96JH8
T4 sequence (Q96JH8 971-1071, limits assumed, looked up): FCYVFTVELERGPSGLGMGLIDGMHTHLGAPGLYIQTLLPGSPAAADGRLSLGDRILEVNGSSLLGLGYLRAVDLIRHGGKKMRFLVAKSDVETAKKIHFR

T5: PDZRN3_1, Q9UPQ7
T5 sequence (Q9UPQ7 244-349, limits assumed, looked up): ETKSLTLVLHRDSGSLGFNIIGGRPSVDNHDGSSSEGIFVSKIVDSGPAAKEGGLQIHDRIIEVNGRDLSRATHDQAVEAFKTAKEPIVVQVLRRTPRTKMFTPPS

T6: PARD3B_1, Q8TEW8
T6 sequence (Q8TEW8 196-299, limits assumed, looked up): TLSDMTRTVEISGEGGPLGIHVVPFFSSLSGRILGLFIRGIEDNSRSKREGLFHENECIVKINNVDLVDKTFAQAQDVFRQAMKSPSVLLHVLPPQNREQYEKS

T7: ARHGAP21, Q5T5U3
T7 sequence (Q5T5U3 45-169, limits assumed, looked up): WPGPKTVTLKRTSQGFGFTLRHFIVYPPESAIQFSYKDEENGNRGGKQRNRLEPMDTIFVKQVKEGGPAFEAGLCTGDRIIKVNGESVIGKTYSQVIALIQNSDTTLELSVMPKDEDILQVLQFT

T8: CARD11, Q9BXL7
T8 sequence (Q9BXL7 662-765, limits assumed, looked up): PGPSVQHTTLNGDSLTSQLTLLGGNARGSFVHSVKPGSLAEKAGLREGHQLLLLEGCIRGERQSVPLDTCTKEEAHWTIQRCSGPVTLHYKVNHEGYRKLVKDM

T9: FRMPD1, Q5SYB0
T9 sequence (Q5SYB0 52-145, limits assumed, looked up): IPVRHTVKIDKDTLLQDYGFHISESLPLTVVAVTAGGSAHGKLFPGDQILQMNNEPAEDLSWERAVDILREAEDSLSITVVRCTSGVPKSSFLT

B1: CCRL2, O00421 (peptide)
chain: REEPDHSTEV
B2: KIRREL1, Q96J84 (peptide)
chain: RFQQRMQTHV
B3: AQP3, Q92482 (peptide)
chain: LAHVKHKEQI
B4: SDK2, Q58EX2 (peptide)
chain: APIAGFSSFV

These binders were tested against T1, MPP2, Q14168 (assay: holdup assay). Settings: plain residues with an end cap or a label only (N-terminal biotin on a linker: ado-ado).
Design: key: below the threshold = too weak to quantify, mostly under pKd 3.1 to 4

Binder | pKd
B1 | below the threshold
B2 | below the threshold
B3 | below the threshold
B4 | below the threshold

Each binder was assayed against T2, LNX2_3, Q8N448 (assay: holdup assay). Settings: plain residues with an end cap or a label only (N-terminal biotin on a linker: ado-ado).
Design: key: below the threshold = too weak to quantify, mostly under pKd 3.1 to 4

Binder | pKd
B1 | below the threshold
B2 | below the threshold
B3 | below the threshold
B4 | below the threshold

The binders below were run against T3, LIN7A, O14910 (assay: holdup assay). Settings: plain residues with an end cap or a label only (N-terminal biotin on a linker: ado-ado).
Design: key: below the threshold = too weak to quantify, mostly under pKd 3.1 to 4

Binder | pKd
B1 | below the threshold
B2 | below the threshold
B3 | below the threshold
B4 | below the threshold

Each binder was assayed against T4, RADIL, Q96JH8 (assay: holdup assay). Settings: plain residues with an end cap or a label only (N-terminal biotin on a linker: ado-ado).
Design: key: below the threshold = too weak to quantify, mostly under pKd 3.1 to 4

Binder | pKd
B1 | 3.96
B2 | 3.9
B3 | below the threshold
B4 | 5.17

What follows are binders tested against GRASP, Q7Z6J2 (assay: holdup assay). Settings: plain residues with an end cap or a label only (N-terminal biotin on a linker: ado-ado).
Chain of GRASP, Q7Z6J2 (Q7Z6J2 96-193): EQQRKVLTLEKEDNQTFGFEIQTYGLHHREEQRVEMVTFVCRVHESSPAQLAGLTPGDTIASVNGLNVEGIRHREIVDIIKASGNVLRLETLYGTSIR
Design: key: below the threshold = too weak to quantify, mostly under pKd 3.1 to 4

Binder | pKd
B1 | 3.77
B2 | 4.35
B3 | below the threshold
B4 | 4.44

The binders below were run against Inadl_10, Q8NI35 (assay: holdup assay). Settings: plain residues with an end cap or a label only (N-terminal biotin on a linker: ado-ado).
Chain of Inadl_10, Q8NI35 (Q8NI35 1673-1763): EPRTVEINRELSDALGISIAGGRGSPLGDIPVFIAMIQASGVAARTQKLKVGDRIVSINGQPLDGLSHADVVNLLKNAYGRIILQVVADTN
Design: key: below the threshold = too weak to quantify, mostly under pKd 3.1 to 4

Binder | pKd
B1 | below the threshold
B2 | below the threshold
B3 | below the threshold
B4 | 4.25

What follows are binders tested against Inadl_3, Q8NI35 (assay: holdup assay). Settings: plain residues with an end cap or a label only (N-terminal biotin on a linker: ado-ado).
Chain of Inadl_3, Q8NI35 (Q8NI35 359-469): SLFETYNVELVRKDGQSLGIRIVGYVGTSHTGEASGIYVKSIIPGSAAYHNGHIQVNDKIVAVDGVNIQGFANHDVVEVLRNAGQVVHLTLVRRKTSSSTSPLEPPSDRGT
Design: key: below the threshold = too weak to quantify, mostly under pKd 3.1 to 4

Binder | pKd
B1 | 3.85
B2 | below the threshold
B3 | below the threshold
B4 | 3.86

What follows are binders tested against T5, PDZRN3_1, Q9UPQ7 (assay: holdup assay). Settings: plain residues with an end cap or a label only (N-terminal biotin on a linker: ado-ado).
Design: key: below the threshold = too weak to quantify, mostly under pKd 3.1 to 4

Binder | pKd
B1 | 4.2
B2 | below the threshold
B3 | below the threshold
B4 | 3.78

Each binder was assayed against Inadl_8, Q8NI35 (assay: holdup assay). Settings: plain residues with an end cap or a label only (N-terminal biotin on a linker: ado-ado).
Chain of Inadl_8, Q8NI35 (Q8NI35 1425-1530): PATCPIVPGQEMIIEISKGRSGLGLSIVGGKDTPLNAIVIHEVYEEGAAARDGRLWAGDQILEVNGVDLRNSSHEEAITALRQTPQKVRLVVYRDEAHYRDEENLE
Design: key: below the threshold = too weak to quantify, mostly under pKd 3.1 to 4

Binder | pKd
B1 | below the threshold
B2 | 3.72
B3 | below the threshold
B4 | 4.34

These binders were tested against LDB3, O75112 (assay: holdup assay). Settings: plain residues with an end cap or a label only (N-terminal biotin on a linker: ado-ado).
Chain of LDB3, O75112 (O75112 1-94): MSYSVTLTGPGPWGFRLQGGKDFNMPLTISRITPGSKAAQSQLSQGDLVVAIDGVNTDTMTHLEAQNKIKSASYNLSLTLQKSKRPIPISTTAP
Design: key: below the threshold = too weak to quantify, mostly under pKd 3.1 to 4

Binder | pKd
B1 | below the threshold
B2 | below the threshold
B3 | below the threshold
B4 | below the threshold

The binders below were run against GRIP2_6, Q9C0E4 (assay: holdup assay). Settings: plain residues with an end cap or a label only (N-terminal biotin on a linker: ado-ado).
Chain of GRIP2_6, Q9C0E4 (Q9C0E4 648-740): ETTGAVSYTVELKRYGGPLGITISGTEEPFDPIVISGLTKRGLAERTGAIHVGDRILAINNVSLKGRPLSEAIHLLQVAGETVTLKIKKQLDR
Design: key: below the threshold = too weak to quantify, mostly under pKd 3.1 to 4

Binder | pKd
B1 | 3.54
B2 | 3.54
B3 | below the threshold
B4 | below the threshold

What follows are binders tested against NHERF4_1, Q86UT5-2 (assay: holdup assay). Settings: plain residues with an end cap or a label only (N-terminal biotin on a linker: ado-ado).
Chain of NHERF4_1, Q86UT5-2 (Q86UT5 other isoform, or with tags, fused parts or gaps): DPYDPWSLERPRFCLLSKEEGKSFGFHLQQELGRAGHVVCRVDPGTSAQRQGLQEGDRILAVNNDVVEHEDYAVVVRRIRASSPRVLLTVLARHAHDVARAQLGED
Design: key: below the threshold = too weak to quantify, mostly under pKd 3.1 to 4

Binder | pKd
B1 | 3.53
B2 | 3.7
B3 | below the threshold
B4 | 3.59

What follows are binders tested against PTPN3, P26045 (assay: holdup assay). Settings: plain residues with an end cap or a label only (N-terminal biotin on a linker: ado-ado).
Chain of PTPN3, P26045 (P26045 505-587): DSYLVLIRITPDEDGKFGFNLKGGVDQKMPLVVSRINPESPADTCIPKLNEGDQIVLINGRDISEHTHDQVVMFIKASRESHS
Design: key: below the threshold = too weak to quantify, mostly under pKd 3.1 to 4

Binder | pKd
B1 | 4.79
B2 | 4.2
B3 | below the threshold
B4 | 4.39

These binders were tested against ARHGEF12, Q9NZN5-2 (assay: holdup assay). Settings: plain residues with an end cap or a label only (N-terminal biotin on a linker: ado-ado).
Chain of ARHGEF12, Q9NZN5-2 (Q9NZN5 other isoform, or with tags, fused parts or gaps): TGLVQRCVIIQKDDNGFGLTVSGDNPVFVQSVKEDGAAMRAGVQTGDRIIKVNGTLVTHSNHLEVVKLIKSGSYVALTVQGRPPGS
Design: key: below the threshold = too weak to quantify, mostly under pKd 3.1 to 4

Binder | pKd
B1 | 4.37
B2 | 4.44
B3 | below the threshold
B4 | 4.14

Each binder was assayed against T6, PARD3B_1, Q8TEW8 (assay: holdup assay). Settings: plain residues with an end cap or a label only (N-terminal biotin on a linker: ado-ado).
Design: key: below the threshold = too weak to quantify, mostly under pKd 3.1 to 4

Binder | pKd
B1 | below the threshold
B2 | below the threshold
B3 | below the threshold
B4 | 3.75

What follows are binders tested against FRMPD3, Q5JV73 (assay: holdup assay). Settings: plain residues with an end cap or a label only (N-terminal biotin on a linker: ado-ado).
Chain of FRMPD3, Q5JV73 (Q5JV73 12-100): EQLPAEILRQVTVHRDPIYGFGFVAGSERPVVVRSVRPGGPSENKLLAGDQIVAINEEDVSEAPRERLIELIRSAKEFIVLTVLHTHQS
Design: key: below the threshold = too weak to quantify, mostly under pKd 3.1 to 4

Binder | pKd
B1 | 3.6
B2 | below the threshold
B3 | below the threshold
B4 | below the threshold

What follows are binders tested against GIPC2, Q8TF65 (assay: holdup assay). Settings: plain residues with an end cap or a label only (N-terminal biotin on a linker: ado-ado).
Chain of GIPC2, Q8TF65 (Q8TF65 112-203): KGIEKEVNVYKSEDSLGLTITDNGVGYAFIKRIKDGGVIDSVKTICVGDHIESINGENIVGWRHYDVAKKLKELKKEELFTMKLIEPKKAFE
Design: key: below the threshold = too weak to quantify, mostly under pKd 3.1 to 4

Binder | pKd
B1 | 4.01
B2 | below the threshold
B3 | below the threshold
B4 | below the threshold

These binders were tested against SNX27, Q96L92 (assay: holdup assay). Settings: plain residues with an end cap or a label only (N-terminal biotin on a linker: ado-ado).
Design: key: below the threshold = too weak to quantify, mostly under pKd 3.1 to 4

Binder | pKd
B1 | 4.73
B2 | 3.85
B3 | below the threshold
B4 | 4.38

The binders below were run against T7, ARHGAP21, Q5T5U3 (assay: holdup assay). Settings: plain residues with an end cap or a label only (N-terminal biotin on a linker: ado-ado).
Design: key: below the threshold = too weak to quantify, mostly under pKd 3.1 to 4

Binder | pKd
B1 | 4.21
B2 | below the threshold
B3 | 3.98
B4 | 4.04

What follows are binders tested against MAGI2_5, Q86UL8 (assay: holdup assay). Settings: plain residues with an end cap or a label only (N-terminal biotin on a linker: ado-ado).
Chain of MAGI2_5, Q86UL8 (Q86UL8 915-1017): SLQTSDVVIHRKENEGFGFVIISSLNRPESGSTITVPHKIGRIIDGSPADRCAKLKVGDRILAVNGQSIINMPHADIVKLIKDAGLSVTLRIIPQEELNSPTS
Design: key: below the threshold = too weak to quantify, mostly under pKd 3.1 to 4

Binder | pKd
B1 | 4.68
B2 | 3.74
B3 | below the threshold
B4 | 4.44

The binders below were run against T8, CARD11, Q9BXL7 (assay: holdup assay). Settings: plain residues with an end cap or a label only (N-terminal biotin on a linker: ado-ado).
Design: key: below the threshold = too weak to quantify, mostly under pKd 3.1 to 4

Binder | pKd
B1 | below the threshold
B2 | below the threshold
B3 | below the threshold
B4 | below the threshold

What follows are binders tested against SCRIB_1, Q14160 (assay: holdup assay). Settings: plain residues with an end cap or a label only (N-terminal biotin on a linker: ado-ado).
Chain of SCRIB_1, Q14160 (Q14160 718-814): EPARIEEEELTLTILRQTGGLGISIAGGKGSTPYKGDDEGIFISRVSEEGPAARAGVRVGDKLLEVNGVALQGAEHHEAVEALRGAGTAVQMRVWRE
Design: key: below the threshold = too weak to quantify, mostly under pKd 3.1 to 4

Binder | pKd
B1 | 4.03
B2 | 4.25
B3 | below the threshold
B4 | below the threshold

The binders below were run against LIMK2, P53671 (assay: holdup assay). Settings: plain residues with an end cap or a label only (N-terminal biotin on a linker: ado-ado).
Chain of LIMK2, P53671 (P53671 143-248): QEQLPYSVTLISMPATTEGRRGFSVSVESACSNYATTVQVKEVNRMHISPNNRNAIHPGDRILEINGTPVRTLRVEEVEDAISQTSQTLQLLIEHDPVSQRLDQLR
Design: key: below the threshold = too weak to quantify, mostly under pKd 3.1 to 4

Binder | pKd
B1 | below the threshold
B2 | below the threshold
B3 | below the threshold
B4 | below the threshold

What follows are binders tested against T9, FRMPD1, Q5SYB0 (assay: holdup assay). Settings: plain residues with an end cap or a label only (N-terminal biotin on a linker: ado-ado).
Design: key: below the threshold = too weak to quantify, mostly under pKd 3.1 to 4

Binder | pKd
B1 | below the threshold
B2 | below the threshold
B3 | below the threshold
B4 | below the threshold

The binders below were run against MAGI1_1, Q96QZ7 (assay: holdup assay). Settings: plain residues with an end cap or a label only (N-terminal biotin on a linker: ado-ado).
Chain of MAGI1_1, Q96QZ7 (Q96QZ7 1-106): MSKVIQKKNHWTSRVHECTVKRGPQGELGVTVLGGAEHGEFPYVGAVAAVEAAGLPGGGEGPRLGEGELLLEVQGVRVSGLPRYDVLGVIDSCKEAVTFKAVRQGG
Design: key: below the threshold = too weak to quantify, mostly under pKd 3.1 to 4

Binder | pKd
B1 | below the threshold
B2 | below the threshold
B3 | below the threshold
B4 | below the threshold

The binders below were run against MAST2, Q6P0Q8 (assay: holdup assay). Settings: plain residues with an end cap or a label only (N-terminal biotin on a linker: ado-ado).
Chain of MAST2, Q6P0Q8 (Q6P0Q8 1099-1202): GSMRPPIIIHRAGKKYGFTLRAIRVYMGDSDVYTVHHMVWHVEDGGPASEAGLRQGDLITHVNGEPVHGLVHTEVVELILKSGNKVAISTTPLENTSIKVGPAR
Design: key: below the threshold = too weak to quantify, mostly under pKd 3.1 to 4

Binder | pKd
B1 | 5.3
B2 | 5.73
B3 | below the threshold
B4 | 4.73

The binders below were run against MAGI2_6, Q86UL8 (assay: holdup assay). Settings: plain residues with an end cap or a label only (N-terminal biotin on a linker: ado-ado).
Chain of MAGI2_6, Q86UL8 (Q86UL8 1141-1229): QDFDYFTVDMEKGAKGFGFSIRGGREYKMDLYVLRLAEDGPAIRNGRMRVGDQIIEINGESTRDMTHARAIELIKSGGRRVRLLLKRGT
Design: key: below the threshold = too weak to quantify, mostly under pKd 3.1 to 4

Binder | pKd
B1 | 4.71
B2 | below the threshold
B3 | below the threshold
B4 | 4.13

Each binder was assayed against DLG2_2, Q15700 (assay: holdup assay). Settings: plain residues with an end cap or a label only (N-terminal biotin on a linker: ado-ado).
Chain of DLG2_2, Q15700 (Q15700 189-283): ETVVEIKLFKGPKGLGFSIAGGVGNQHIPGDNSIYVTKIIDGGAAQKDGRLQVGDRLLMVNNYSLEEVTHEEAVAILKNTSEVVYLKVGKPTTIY
Design: key: below the threshold = too weak to quantify, mostly under pKd 3.1 to 4

Binder | pKd
B1 | 4.5
B2 | 4.44
B3 | below the threshold
B4 | 3.86

The binders below were run against DLG4_1, P78352 (assay: holdup assay). Settings: plain residues with an end cap or a label only (N-terminal biotin on a linker: ado-ado).
Chain of DLG4_1, P78352 (P78352 62-152): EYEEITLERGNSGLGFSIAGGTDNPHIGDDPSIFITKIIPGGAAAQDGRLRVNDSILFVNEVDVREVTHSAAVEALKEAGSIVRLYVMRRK
Design: key: below the threshold = too weak to quantify, mostly under pKd 3.1 to 4

Binder | pKd
B1 | 4.71
B2 | 4.32
B3 | below the threshold
B4 | 4.24

Source: article PMC9482650, “Quantitative fragmentomics allow affinity mapping of interactomes” (Nature Communications, 2022)
